B1: Protein PTHB1 (Homo sapiens), Q3SYG4 (parent)
chain: MSLFKARDWWSTILGDKEEFDQGCLCLANVDNSGNGQDKIIVGSFMGYLRIFSPHPAKTGDGAQAEDLLLEVDLRDPVLQVEVGKFVSGTEMLHLAVLHSRKLCVYSVSGTLGNVEHGNQCQMKLMYEHNLQRTACNMTYGSFGGVKGRDLICIQSMDGMLMVFEQESYAFGRFLPGFLLPGPLAYSSRTDSFLTVSSCQQVESYKYQVLAFATDADKRQETEQQKLGSGKRLVVDWTLNIGEQALDICIVSFNQSASSVFVLGERNFFCLKDNGQIRFMKKLDWSPSCFLPYCSVSEGTINTLIGNHNNMLHIYQDVTLKWATQLPHIPVAVRVGCLHDLKGVIVTLSDDGHLQCSYLGTDPSLFQAPNVQSRELNYDELDVEMKELQKIIKDVNKSQGVWPMTEREDDLNVSVVVSPNFDSVSQATDVEVGTDLVPSVTVKVTLQNRVILQKAKLSVYVQPPLELTCDQFTFEFMTPDLTRTVSFSVYLKRSYTPSELEGNAVVSYSRPTDRNPDGIPRVIQCKFRLPLKLICLPGQPSKTASHKITIDTNKSPVSLLSLFPGFASQSDDDQVNVMGFHFLGGARITVLASKTSQRYRIQSEQFEDLWLITNELILRLQEYFEKQGVKDFACSFSGSIPLQEYFELIDHHFELRINGEKLEELLSERAVQFRAIQRRLLARFKDKTPAPLQHLDTLLDGTYKQVIALADAVEENQGNLFQSFTRLKSATHLVILLIALWQKLSADQVAILEAAFLPLQEDTQELGWEETVDAAISHLLKTCLSKSSKEQALNLNSQLNIPKDTSQLKKHITLLCDRLSKGGRLCLSTDAAAPQTMVMPGGCTTIPESDLEERSVEQDSTELFTNHRHLTAETPRPEVSPLQGVSE
partner: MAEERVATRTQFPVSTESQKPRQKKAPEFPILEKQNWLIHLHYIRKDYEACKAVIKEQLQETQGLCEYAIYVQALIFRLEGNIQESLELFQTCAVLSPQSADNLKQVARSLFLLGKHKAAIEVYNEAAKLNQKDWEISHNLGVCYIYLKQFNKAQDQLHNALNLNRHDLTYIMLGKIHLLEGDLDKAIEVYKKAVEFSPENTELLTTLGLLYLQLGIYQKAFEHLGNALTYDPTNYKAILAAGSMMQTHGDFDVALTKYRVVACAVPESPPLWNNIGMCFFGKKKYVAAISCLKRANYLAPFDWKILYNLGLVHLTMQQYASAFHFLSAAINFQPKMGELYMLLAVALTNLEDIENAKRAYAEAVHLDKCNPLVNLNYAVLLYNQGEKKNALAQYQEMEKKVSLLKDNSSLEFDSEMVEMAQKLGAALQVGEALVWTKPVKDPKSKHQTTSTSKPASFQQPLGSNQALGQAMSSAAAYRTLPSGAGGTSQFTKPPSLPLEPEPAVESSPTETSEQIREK

The test covers variants of B1. To be noted: with bbs4_human BBS4, Q96RK4.
In the case of K789E, the “effect of a mutation on the interaction” value is on record as “with no effect”.

As for F636A, the “effect of a mutation on the interaction” value is given as “with no effect”.

Consider D696N, for which the “effect of a mutation on the interaction” value is listed as “disrupting interaction strength”.

With V522E, the “effect of a mutation on the interaction” value is recorded as “with no effect”.

In the case of F487E, the “effect of a mutation on the interaction” value is on record as “with no effect”.

Consider R600K, for which the “effect of a mutation on the interaction” value is reported as “with no effect”.

For L618A, the “effect of a mutation on the interaction” value is “with no effect”.

In the case of H546K, the “effect of a mutation on the interaction” value was “with no effect”.

Take L766E: the “effect of a mutation on the interaction” value is “with no effect”.

T468A: the “effect of a mutation on the interaction” value was “with no effect”.

For the variant T468E, the “effect of a mutation on the interaction” value was “with no effect”.

In the case of R674W, the “effect of a mutation on the interaction” value is listed as “disrupting interaction strength”.

R674K: the “effect of a mutation on the interaction” value is on record as “with no effect”.

For E406A, the “effect of a mutation on the interaction” value is “with no effect”.

Regarding T445A, the “effect of a mutation on the interaction” value is “with no effect”.

As for F580A, the “effect of a mutation on the interaction” value was “with no effect”.

In the case of P464A, the “effect of a mutation on the interaction” value is “with no effect”.

Regarding K809A, the “effect of a mutation on the interaction” value was “with no effect”.

Regarding N553K, the “effect of a mutation on the interaction” value is given as “with no effect”.

Regarding G767A, the “effect of a mutation on the interaction” value was “with no effect”.

S494K: the “effect of a mutation on the interaction” value is “with no effect”.

S785A: the “effect of a mutation on the interaction” value was “with no effect”.

On to K661A, for which the “effect of a mutation on the interaction” value was “with no effect”.

Regarding C826R, the “effect of a mutation on the interaction” value is given as “disrupting interaction strength”.

Take G502E: the “effect of a mutation on the interaction” value is “with no effect”.

Regarding D859A, the “effect of a mutation on the interaction” value is listed as “with no effect”.

Consider A755E, for which the “effect of a mutation on the interaction” value is listed as “with no effect”.

In the case of R679A, the “effect of a mutation on the interaction” value is “with no effect”.

Turning to Q722K, the “effect of a mutation on the interaction” value was “with no effect”.

Take G433K: the “effect of a mutation on the interaction” value is “with no effect”.

In the case of Q760A, the “effect of a mutation on the interaction” value is recorded as “with no effect”.

Turning to L882A, the “effect of a mutation on the interaction” value is given as “with no effect”.

In the case of L882K, the “effect of a mutation on the interaction” value is reported as “with no effect”.

In the case of S635K, the “effect of a mutation on the interaction” value is recorded as “with no effect”.

Regarding A708E, the “effect of a mutation on the interaction” value was “with no effect”.

As to Q602K, the “effect of a mutation on the interaction” value was “with no effect”.

In the case of Q602E, the “effect of a mutation on the interaction” value is recorded as “with no effect”.

Regarding W741K, the “effect of a mutation on the interaction” value is “with no effect”.

On to R407K, for which the “effect of a mutation on the interaction” value is reported as “with no effect”.

With L709A, the “effect of a mutation on the interaction” value was “with no effect”.

As for G585E, the “effect of a mutation on the interaction” value is on record as “with no effect”.

A746E: the “effect of a mutation on the interaction” value is reported as “with no effect”.

As for V413A, the “effect of a mutation on the interaction” value is reported as “with no effect”.

For D830E, the “effect of a mutation on the interaction” value is “with no effect”.

K443A: the “effect of a mutation on the interaction” value is “with no effect”.

As to G822E, the “effect of a mutation on the interaction” value is “with no effect”.

Turning to G822K, the “effect of a mutation on the interaction” value is “with no effect”.

Turning to D773E, the “effect of a mutation on the interaction” value is listed as “with no effect”.

For P438A, the “effect of a mutation on the interaction” value is “with no effect”.

Regarding C816A, the “effect of a mutation on the interaction” value is on record as “with no effect”.

Regarding P689E, the “effect of a mutation on the interaction” value is reported as “with no effect”.

Consider S603K, for which the “effect of a mutation on the interaction” value was “with no effect”.

On to V671R, for which the “effect of a mutation on the interaction” value was “disrupting interaction strength”.

Consider V671A, for which the “effect of a mutation on the interaction” value is on record as “with no effect”.

Regarding V671K, the “effect of a mutation on the interaction” value is on record as “with no effect”.

Consider T484E, for which the “effect of a mutation on the interaction” value is reported as “with no effect”.

Consider W768E, for which the “effect of a mutation on the interaction” value is given as “with no effect”.

For F673A, the “effect of a mutation on the interaction” value is given as “with no effect”.

V706K: the “effect of a mutation on the interaction” value is given as “with no effect”.

Take Y703E: the “effect of a mutation on the interaction” value is recorded as “with no effect”.

As to R818T, the “effect of a mutation on the interaction” value is given as “disrupting interaction strength”.

In the case of S570A, the “effect of a mutation on the interaction” value was “with no effect”.

With E663A, the “effect of a mutation on the interaction” value was “with no effect”.

For the variant L698K, the “effect of a mutation on the interaction” value is listed as “with no effect”.

With L698S, the “effect of a mutation on the interaction” value is given as “disrupting interaction strength”.

With Q717K, the “effect of a mutation on the interaction” value is on record as “with no effect”.

Regarding V879K, the “effect of a mutation on the interaction” value was “with no effect”.

Take L699A: the “effect of a mutation on the interaction” value is on record as “with no effect”.

In the case of R449A, the “effect of a mutation on the interaction” value was “with no effect”.

For the variant R449K, the “effect of a mutation on the interaction” value is given as “with no effect”.

Regarding R449E, the “effect of a mutation on the interaction” value is reported as “with no effect”.

Regarding N658A, the “effect of a mutation on the interaction” value was “with no effect”.

Turning to S855A, the “effect of a mutation on the interaction” value is “with no effect”.

As for D747K, the “effect of a mutation on the interaction” value is given as “with no effect”.

As for E431A, the “effect of a mutation on the interaction” value was “with no effect”.

For S486E, the “effect of a mutation on the interaction” value is listed as “with no effect”.

Consider Q791K, for which the “effect of a mutation on the interaction” value is “with no effect”.

For Q791E, the “effect of a mutation on the interaction” value is recorded as “with no effect”.

As to F606K, the “effect of a mutation on the interaction” value is “with no effect”.

Take F606A: the “effect of a mutation on the interaction” value was “with no effect”.

Take S797A: the “effect of a mutation on the interaction” value is recorded as “with no effect”.

Take L681K: the “effect of a mutation on the interaction” value was “with no effect”.

Regarding V424E, the “effect of a mutation on the interaction” value is reported as “with no effect”.

Turning to I812E, the “effect of a mutation on the interaction” value is “with no effect”.

In the case of I812K, the “effect of a mutation on the interaction” value is given as “with no effect”.

As to I812A, the “effect of a mutation on the interaction” value is “with no effect”.

As for Q597K, the “effect of a mutation on the interaction” value is “with no effect”.

In the case of L655A, the “effect of a mutation on the interaction” value is “with no effect”.

For D429A, the “effect of a mutation on the interaction” value was “with no effect”.

Consider V440A, for which the “effect of a mutation on the interaction” value was “with no effect”.

The values above are taken from IntAct's records for PubMed 29039417.
